First the molecules themselves.
B1: T-cp4n2m3c-Antp (peptide)
chain 1: REXGDGXE
chain 2: RQIKIWFQNRRMKWKK
modifications: 5-TAMRA-Ahx on the N-terminus; X3 and X7 (n2, 2 CH2): azido unnatural amino acids cross-linked through two triazoles by linker m3c, which carries the second chain | two Ahx spacers between the m3c linker and the N-terminus
B2: T-cp4n2m3c-R6 (peptide)
chain 1: {5‑TAMRA-Ahx}-RE[Aha]GDG[Aha]E
chain 2: RRRRRR
modifications: triazole I:3-I:7 via m3c; not fully specified (N-terminus); reading uncertain; also: chain 2 N-terminus conjugated to m3c linker of chain 1
B3: TNKS1 ARC2–3 (315–662) (domain or fragment, human, UniProt O95271 315-662, looked up)
chain: GKSALDLADPSAKAVLTGEYKKDELLEAARSGNEEKLMALLTPLNVNCHASDGRKSTPLHLAAGYNRVRIVQLLLQHGADVHAKDKGGLVPLHNACSYGHYEVTELLLKHGACVNAMDLWQFTPLHEAASKNRVEVCSLLLSHGADPTLVNCHGKSAVDMAPTPELRERLTYEFKGHSLLQAAREADLAKVKKTLALEIINFKQPQSHETALHCAVASLHPKRKQVTELLLRKGANVNEKNKDFMTPLHVAAERAHNDVMEVLHKHGAKMNALDTLGQTALHRAALAGHLQTCRLLLSYGSDPSIISLQGFTAAQMGNEAVQQILSESTPIRTSDVDYRLLEASKAGD
B4: cp4n2m3 (peptide)
chain: Ac-RE[Aha]GDG[Aha]E
modifications: triazole 3-7 via m3; reading uncertain
B5: T-pep1 (TAMRA-Ahx-REAGDGEE) (peptide)
peptide: {5‑TAMRA-Ahx}-REAGDGEE
B6: human Axin1 residues 1-80 (domain or fragment, UniProt O15169 1-80, looked up)
chain: MNIQEQGFPLDLGASFTEDAPRPPVPGEEGELVSTDPRPASYSFCSGKGVGIKGETSTATPRRSDLDLGYEPEGSASPTP
B7: hAxin1_1-80: fragment of human Axin1, residues 1–80, containing both TNKS-binding motifs (protein)
chain: B6 chain
modifications: left off: GST, end not stated, cleaved
B8: TNKS2 ARC4 (488–649) (domain or fragment, human, UniProt Q9H2K2 488-649, looked up)
chain: GNSEADRQLLEAAKAGDVETVKKLCTVQSVNCRDIEGRQSTPLHFAAGYNRVSVVEYLLQHGADVHAKDKGGLVPLHNACSYGHYEVAELLVKHGAVVNVADLWKFTPLHEAAAKGKYEICKLLLQHGADPTKKNRDGNTPLDLVKDGDTDIQDLLRGDAAL

For one assay, the target named is T1, TNKS2 ARC4 (Homo sapiens, UniProt Q9H2K2).
T1 construct: GST (cleaved yes); made in house; host or cells: E. coli C41(DE3)
T1 sequence (Q9H2K2 488-649): B8 chain
Briefly: Competitive fluorescence polarization, TNKS2 ARC4. The settings on record: unlabeled peptides; tracer T-pep1 bound to ARC4; read-out: Kd TNKS2 ARC4 (Competition FP). It counts as binding. On the procedure: Fluorescence polarization (FP) assays were performed in 96-well half area black microplates (Corning) on a CLARIOstar microplate reader (BMG labtech) using excitation filter 540–20 nm, dichroic mirror LP 566 nm, and emission filter 590–20 nm. All peptides were dissolved in water as stock solutions. For direct FP assays, the stock concentrations of the TAMRA-labeled peptides were determined based on the 5-TAMRA absorbance at 556 nm (extinction coefficient ε = 89,000 M^–1 cm^–1) measured on a NanoDrop 2000 (Thermo Scientific) and verified by amino acid analysis (Department of Biochemistry, University of Cambridge). […] Data were analyzed on GraphPad Prism 5.0, and the dissociation constant, Kd, was determined using the following equation assuming the ratio between the concentration of the bound and that of the total TAMRA-labeled peptide is proportional to the fluorescence polarization [drawing 1] where FP is the fluorescence polarization, B is the minimum FP, T is the maximum FP, L0 is the total concentration of TAMRA-labeled peptide, P0 is the total concentration of protein, and Kd is the dissociation constant.
For the competition FP assays, the stock concentrations of the unlabeled macrocyclized peptides or the Axin1 fragments were determined by amino acid analysis. […]
A general note: Polarisation of emitted light reports the rotation of a fluorescent probe.

In assay [1] the target is T2, human tankyrase 2 ankyrin repeat cluster 4 (TNKS2 ARC4, residues 488-649) (human, UniProt Q9H2K2 488-649).
T2 sequence (looked up): B8 chain
As to the kind of experiment: fluorescence polarisation; direct: TNKS2 ARC4 or TNKS1 ARC2-3 diluted 2-fold serially (40-0 uM, 50 uL) and mixed with TAMRA-labeled peptide (20 nM, 50 uL); 50 mM HEPES pH 7.5, 300 mM NaCl, 2 mM DTT, 0.05% Tween 20; 30 min, 25 C. The settings on record: both partners purified.

A further assay has as its target human Axin1_1–80 (human, UniProt O15169 1-80). Briefly: ITC; TNKS2 ARC4 (160–280 μM) or TNKS1 ARC2–3 (60–150 μM) titrated into the cell holding peptide (5–15 μM) or Axin1 fragment (8–12 μM); PBS, 0.5 mM TCEP; 25 °C; one-site model. The settings on record: both partners purified. A general note: In ITC the heat of successive injections is recorded.
In the assay “TNKS2 ARC4 (488–649)” the target is B8. As to the kind of experiment: pull-down; GST-Axin1 1–80 on glutathione beads incubated with TNKS2 ARC4 (89 μM), washed, then incubated 0.5 h at room temperature with unlabeled peptide (0–200 μM); wash buffer 50 mM Tris·HCl pH 8.0, 500 mM NaCl, 2 mM DTT; SDS-PAGE, Coomassie, densitometry. The settings on record: both partners purified.
Assay [2] has as its target T3, human tankyrase 1 ankyrin repeat clusters 2-3 (TNKS1 ARC2-3, residues 315-662) (human, UniProt O95271 315-662).
T3 sequence (looked up): B3 chain
As to the kind of experiment: fluorescence polarisation; direct: TNKS2 ARC4 or TNKS1 ARC2-3 diluted 2-fold serially (40-0 uM, 50 uL) and mixed with TAMRA-labeled peptide (20 nM, 50 uL); 50 mM HEPES pH 7.5, 300 mM NaCl, 2 mM DTT, 0.05% Tween 20; 30 min, 25 C. The settings on record: both partners purified.

The target of assay [3] is T2, human tankyrase 2 ankyrin repeat …. The description is as above. The settings on record: both partners purified. This is another data set of the same source.
Assay [4] addresses T3, human tankyrase 1 ankyrin repeat …. As to the kind of experiment: ITC; TNKS2 ARC4 (160-280 uM) or TNKS1 ARC2-3 (60-150 uM) titrated into the cell with unlabeled peptide (5-15 uM) or Axin1 fragment (8-12 uM); PBS, 0.5 mM TCEP; 25 C; one-site model; stoichiometry = TNKS per peptide or Axin1. The settings on record: both partners purified.
For assay [5], the target named is T2, human tankyrase 2 ankyrin repeat …. The description is as above. The settings on record: both partners purified.
For assay [6] the target is unchanged. As to the kind of experiment: fluorescence polarisation; competition: unlabeled peptide or Axin1 fragment diluted 2-fold serially against TAMRA-labeled pep1 (20 nM) with TNKS2 ARC4 (3 uM); PBS, 0.05% Tween 20; 30 min, 25 C. The settings on record: both partners purified.
The next assay deals with T4, TNKS1 ARC2-3 (Homo sapiens, UniProt O95271).
T4 construct: His6 (cleaved yes); made in house; host or cells: E. coli C41(DE3)
T4 sequence (O95271 315-662): B3 chain
As to the kind of experiment: Isothermal titration calorimetry, TNKS1 ARC2-3. It counts as binding. The settings on record: unlabeled peptides and Axin proteins. The procedure:
All ITC experiments were performed on a MicroCal iTC200 (GE Healthcare) at 25 °C. TNKS2 ARC4 (488–649), TNKS1 ARC2–3 (315–662), and Axin1 fragments were dialyzed overnight in PBS and 0.5 mM TCEP. Unlabeled peptides were used in the experiments. The peptide was diluted from the stock solution using the same dialysis buffer, and the effect of buffer dilution was accounted for when preparing TNKS samples. TNKS2 ARC4 (160–280 μM) or TNKS1 ARC2–3 (60–150 μM) was titrated into the sample cell containing the peptide (5–15 μM) or Axin1 fragments (8–12 μM) with an initial injection of 0.2 μL over 0.4 s followed by 19 injections of 2 μL over 4 s with a spacing of 60 s, except for TNKS2 ARC4 and Axin1 fragments for which the spacing was 70 s. Control experiments were performed using the same settings as above except that the cell was filled with dialysis buffer. Data were fitted with nonlinear regression using a one-site binding model from Origin 7.0 (MicroCal, Inc.).[90]

A further assay concerns the target T-cp4n2m3c. As to the kind of experiment: fluorescence polarisation; direct FP; TAMRA-labeled peptide (20 nM, 50 μL) mixed with serially diluted TNKS2 ARC4 (40–0 μM, 50 μL); 50 mM HEPES pH 7.5, 300 mM NaCl, 2 mM DTT, 0.05% Tween 20; 30 min at 25 °C.

What is called Kd is a measure of binding affinity in units of concentration. As a reminder, the stoichiometry N is a count of units in the complex or per binding partner. As usually defined, the IC50 is the concentration that inhibits the measured activity by half. Low values mean greater potency in that assay, high ones weaker potency in that assay.

Bridge positions count the residues as written; N and C are the ends. Square brackets hold non-standard residues; d marks the D form. Ends that are not written are not given here. Peptide text beside a SMILES is read from it. I, II: the chains in the order shown. * marks the point of attachment. 5‑TAMRA = CN(C)c1ccc2c(-c3ccc(C(=O)*)cc3C(=O)[O-])c3ccc(N(C)C)cc3[o+]c2c1; Lys(N3) = [N-]=[N+]=NCCCC[C@H](N)C(=O)O; Aha = [N-]=[N+]=NCC[C@H](N)C(=O)O; m3c = not defined here; m3 = not defined here; Ahx = NCCCCCC(=O)O

Regarding `CC(=O)N[C@@H](CCCNC(=N)N)C(=O)N[C@@H](CCC(=O)O)C(=O)N[C@@H](CCCCN=[N+]=[N-])C(=O)NCC(=O)N[C@@H](CC(=O)O)C(=O)NCC(=O)N[C@@H](CCC(=O)O)C(=O)N[C@@H](CCCCN=[N+]=[N-])C(N)=O` [cp5n4] (Ac-RE[Lys(N3)]GDGE[Lys(N3)]-NH2), the Kd at TNKS2 ARC4 came out at 2.6 ± 0.1 µM. Still for that read-out and setting: to `CC(=O)N[C@@H](CCCNC(=N)N)C(=O)N[C@@H](CCC(=O)O)C(=O)N[C@@H](CCCCN=[N+]=[N-])C(=O)NCC(=O)N[C@@H](CC(=O)O)C(=O)NCC(=O)N[C@@H](CCCCN=[N+]=[N-])C(=O)N[C@@H](CCC(=O)O)C(N)=O` [cp4n4] (Ac-RE[Lys(N3)]GDG[Lys(N3)]E-NH2) belongs 1.4 ± 0.1 µM. In assay [1], B1 gave a dissociation constant (Kd) of 0.49 ± 0.02 µM. In assay [1], B2 yielded an equilibrium dissociation constant (Kd) of 0.95 ± 0.02 µM. Take B3: in the assay with human Axin1_1–80, the “stoichiometry N” value stood at 2. For the molecule B4, the concentration for half-maximal inhibition (IC50) in the assay with TNKS2 ARC4 (488–649) is approximately 20 µM. As for B5, the values for the dissociation constant Kd in assay [2] and in [3] were 0.19 ± 0.004 µM and 0.78 ± 0.06 µM, respectively.

B6: the results for the dissociation constant Kd in [4], in [5] and in [6] were 1.59 ± 0.09 µM, 2.62 ± 0.36 µM and 2.78 ± 0.22 µM, respectively. Moreover, the results for the “stoichiometry N” value in assay [4] and in assay [5] were 2.1 ± 0.02 and 1 ± 0.03, respectively. For the molecule B7, the “Stoichiometry (ITC), TNKS1 ARC2-3” value with TNKS1 ARC2-3 was “two”.

On to B8, for which, in the assay with human Axin1_1–80, the “stoichiometry N” value worked out at 1. In the assay with T-cp4n2m3c, this molecule showed a fold higher affinity than T-pep1 of 2 fold.

For the origin of these results see publication PMC5358875 (Journal of the American Chemical Society, 2017).
